According to patent US20250075002A1 (BEIGENE SWITZERLAND, published 2025):

B1: MUC1 3D1-hFc-AF (antibody, IgG1, V domains shown)
VH: EVQLVQSGAEVKKPGESLKISCKGSGYAFSNFWMNWVRQMPGKGLEWMGQIYPGDGDTNYNGKFKGQVTISADKSISTAYLQWSSLKASDTAMYYCARSYYRSAWFAYWGQGTLVTVSL
VL: EIVLTQSPDFQSVTPKEKVTITCRASQSIGTSIHWYQQKPDQSPKLLIKYASESISGVPSRFSGSGSGTDFTLTINSLEAEDAATYYCQQSNNWPLTFGQGTKVEIK
modifications: afucosylated Fc glycan (-AF)
B2: HuVH-HMFG1-AF (antibody, IgG1, V domains shown)
VH: QVQLVQSGAEVKKPGASVKVSCKASGYTFSAYWIEWVRQAPGKGLEWVGEILPGSNNSRYNEKFKGRVTVTRDTSTNTAYMELSSLRSEDTAVYYCARSYDFAWFAYWGQGTLVTVSS
VL: DIQMTQSPSSLSASVGDRVTITCKSSQSLLYSSNQKIYLAWYQQKPGKAPKLLIYWASTRESGVPSRFSGSGSGTDFTFTISSLQPEDIATYYCQQYYRYPRTFGQGTKVEIK
modifications: afucosylated Fc glycan (-AF)
B3: Gatipotuzumab-AF (antibody, IgG1, V domains shown)
VH: EVQLVESGGGLVQPGGSMRLSCVASGFPFSNYWMNWVRQAPGKGLEWVGEIRLKSNNYTTHYAESVKGRFTISRDDSKNSLYLQMNSLKTEDTAVYYCTRHYYFDYWGQGTLVTVSS
VL: DIVMTQSPLSNPVTPGEPASISCRSSKSLLHSNGITYFFWYLQKPGQSPQLLIYQMSNLASGVPDRFSGSGSGTDFTLRISRVEAEDVGVYYCAQNLELPPTFGQGTKVEIK
modifications: afucosylated Fc glycan (-AF)
B4: huBG219P-Bz0 (antibody, IgG1, V domains shown)
VH: EVQLLESGGGLVQPGGSLRLSCAASGFTFNDYIMSWVRQAPGKGLEWVATVSSGGDNTYYPDSVKGRFTISRDNSKNTLYLQMNSLRAEDTAVYYCTRYGGLGAMDYWGQGTLVTVSS
VL: DIQMTQSPSSLSASVGERVTITCRASGNIHNYLTWYQQKPGKSPKLLVYNAKTLADGVPSRFSGSGSGPDYTLTISSLQPEDFATYYCQHFWSVPYTFGQGTKLEIK
notes: Humanized
B5: Clivatuzumab-AF (antibody, IgG1, V domains shown)
VH: QVQLQQSGAEVKKPGASVKVSCEASGYTFPSYVLHWVKQAPGQGLEWIGYINPYNDGTQYNEKFKGKATLTRDTSINTAYMELSRLRSDDTAVYYCARGFGGSYGFAYWGQGTLVTVSS
VL: DIQLTQSPSSLSASVGDRVTMTCSASSSVSSSYLYWYQQKPGKAPKLWIYSTSNLASGVPARFSGSGSGTDFTLTISSLQPEDSASYFCHQWNRYPYTFGGGTRLEIK
modifications: afucosylated Fc glycan (-AF)

Columns and labels:
[1] = target: T1, Human MUC1 (full length), on cells (human, UniProt P15941 24-1255); assay: cell-based or functional assay
[2] = target: T1, Human MUC1 (full length), on cells; assay: flow cytometry on live ZR-75 cells (native MUC1)

T1 sequence (P15941 24-1255 limits assumed): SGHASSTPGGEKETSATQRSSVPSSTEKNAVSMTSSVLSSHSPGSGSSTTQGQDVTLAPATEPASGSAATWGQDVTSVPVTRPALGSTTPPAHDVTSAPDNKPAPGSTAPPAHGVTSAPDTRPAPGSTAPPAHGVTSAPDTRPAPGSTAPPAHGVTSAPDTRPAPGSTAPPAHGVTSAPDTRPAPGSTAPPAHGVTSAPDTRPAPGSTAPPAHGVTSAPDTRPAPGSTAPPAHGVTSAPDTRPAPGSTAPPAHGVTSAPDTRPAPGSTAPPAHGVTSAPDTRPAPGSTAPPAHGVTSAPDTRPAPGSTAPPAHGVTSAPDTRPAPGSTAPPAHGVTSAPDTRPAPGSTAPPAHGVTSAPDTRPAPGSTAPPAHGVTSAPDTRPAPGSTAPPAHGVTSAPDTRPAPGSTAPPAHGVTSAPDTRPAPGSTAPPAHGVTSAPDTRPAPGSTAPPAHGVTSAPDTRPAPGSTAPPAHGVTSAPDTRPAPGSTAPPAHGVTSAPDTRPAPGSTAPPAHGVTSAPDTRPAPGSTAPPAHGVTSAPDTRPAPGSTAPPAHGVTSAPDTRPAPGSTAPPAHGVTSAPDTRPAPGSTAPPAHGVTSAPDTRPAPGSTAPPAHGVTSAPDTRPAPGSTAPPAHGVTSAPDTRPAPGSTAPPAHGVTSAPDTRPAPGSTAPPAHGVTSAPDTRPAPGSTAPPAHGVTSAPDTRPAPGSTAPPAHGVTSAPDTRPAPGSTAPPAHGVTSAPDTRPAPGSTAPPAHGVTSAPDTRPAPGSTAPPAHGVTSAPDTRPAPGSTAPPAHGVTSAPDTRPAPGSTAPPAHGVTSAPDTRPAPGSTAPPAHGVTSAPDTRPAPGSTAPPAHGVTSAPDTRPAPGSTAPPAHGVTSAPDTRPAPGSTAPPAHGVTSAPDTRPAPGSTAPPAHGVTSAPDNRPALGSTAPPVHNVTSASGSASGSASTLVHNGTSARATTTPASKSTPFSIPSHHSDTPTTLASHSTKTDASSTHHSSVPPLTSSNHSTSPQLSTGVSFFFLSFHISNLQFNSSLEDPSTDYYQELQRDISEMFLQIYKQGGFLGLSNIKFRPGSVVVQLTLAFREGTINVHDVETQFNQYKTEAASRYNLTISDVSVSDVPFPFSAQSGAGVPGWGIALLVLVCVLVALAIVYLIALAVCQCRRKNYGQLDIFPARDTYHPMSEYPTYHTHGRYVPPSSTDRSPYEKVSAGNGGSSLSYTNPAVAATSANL

| Binder | Cell lysis activity EC50, T-47D/nanoluc in human whole blood [1] [nM] | Cell lysis activity Emax, T-47D/nanoluc in human whole blood [1] [%] | EC50 [2] [nM] |
| --- | --- | --- | --- |
| B1 | 8.85 | 10.6 | – |
| B2 | – | 3.59 | – |
| B3 | 2.46 | 10.2 | – |
| B4 | – | – | 20.9 |
| B5 | – | 2.31 | – |
